Publication PMC2874908
Where two headings read alike, the source gives them in different places.

How the values were obtained:
[1] = target: β-catenin (endogenous, CHO cells) (Chinese hamster (endogenous in CHO)) (UniProt G3H996); assay: co-IP
[2] = target: β-catenin (endogenous, CHO cells) (Chinese hamster (endogenous in CHO)) (UniProt G3H996); assay: co-IP; remark: listed apart in the source

fold change of dynein with β-catenin, V13 cells against E-cadherin cells [1]: 3 fold
fold change of dynein with β-catenin, V13 cells against E-cadherin cells [2]: 2 to 2.5 fold
Substance: dynein (microtubule motor protein; endogenous, CHO cells) (complex)
